Measured values taken from publication PMC11915586.

Columns and labels:
[1] = target: Hsp90 from Saccharomyces cerevisiae (Hsp82) with D61C, CpK at position 452 and a C-terminal coiled-coil motif, labelled with Atto 550 / Atto 647N and DNA oligonucleotide (Saccharomyces cerevisiae) (UniProt P02829); experiment: optical tweezers (single-molecule force spectroscopy); dye-labeled Hsp90 dimer tethered at position 452 by 2.5 kbp DNA handles; constant velocity 500 nm s^-1; 2 mM AMP-PNP, incubated 30 min at 21°C; 26 traces
[2] = target: Hsp90 from Saccharomyces cerevisiae (Hsp82) with D61C, CpK at position 452 and a C-terminal coiled-coil motif, labelled with Atto 550 / Atto 647N and DNA oligonucleotide (Saccharomyces cerevisiae) (UniProt P02829); experiment: optical tweezers (single-molecule force spectroscopy); dye-labeled Hsp90 dimer tethered at position 452 of both monomers between two beads by 2.5 kbp DNA handles; constant velocity 500 nm s^-1; no AMP-PNP; 147 unfolding traces
[3] = target: Hsp90 from Saccharomyces cerevisiae (Hsp82) with D61C, CpK at position 452 and a C-terminal coiled-coil motif, labelled with Atto 550 / Atto 647N and DNA oligonucleotide (Saccharomyces cerevisiae) (UniProt P02829); experiment: optical tweezers (single-molecule force spectroscopy); dye-labeled Hsp90 dimer tethered at position 452 of both monomers between two beads by 0.5 kbp DNA handles; constant velocity 500 nm s^-1; no nucleotide; 172 unfolding traces

dissociation force, C-terminal dimer dissociation [1]: 10.7 pN
force of N-terminal dimer opening [1]: 8.8 pN
dissociation force, C-terminal dimer dissociation [2]: 16.5 pN
dissociation force, C-terminal dimer dissociation [3]: 16.8 pN
Substance: Hsp90 from Saccharomyces cerevisiae (Hsp82) with D61C, CpK at position 452 and a C-terminal coiled-coil motif, labelled with Atto 550 / Atto 647N and DNA oligonucleotide (from UniProt P02829 1-709) (natural protein)
